Data taken from patent US20210107998A1 (Boehringer Ingelheim, published 2021).

T1: Linked human IL-23 (Boehringer Ingelheim Pharmaceuticals, Inc.) (human, UniProt P29460 23-328)
T1 sequence 1: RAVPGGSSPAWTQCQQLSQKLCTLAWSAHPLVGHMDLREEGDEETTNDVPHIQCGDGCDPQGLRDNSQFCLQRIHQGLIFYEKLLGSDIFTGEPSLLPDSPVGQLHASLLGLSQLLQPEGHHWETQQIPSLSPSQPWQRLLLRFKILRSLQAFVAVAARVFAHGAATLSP
T1 sequence 2: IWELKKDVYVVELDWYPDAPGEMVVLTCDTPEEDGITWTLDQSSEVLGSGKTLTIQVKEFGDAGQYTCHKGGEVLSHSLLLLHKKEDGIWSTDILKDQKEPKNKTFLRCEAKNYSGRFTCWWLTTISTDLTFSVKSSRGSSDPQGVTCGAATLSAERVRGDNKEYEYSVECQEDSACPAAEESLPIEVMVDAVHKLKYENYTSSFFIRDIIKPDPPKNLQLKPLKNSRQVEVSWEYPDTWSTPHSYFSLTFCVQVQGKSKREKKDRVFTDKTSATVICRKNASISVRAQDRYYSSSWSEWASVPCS

T2: Recombinant human IL-23 (human, UniProt P29460 23-328)
T2 construct: also called hu IL23
T2 sequence 1: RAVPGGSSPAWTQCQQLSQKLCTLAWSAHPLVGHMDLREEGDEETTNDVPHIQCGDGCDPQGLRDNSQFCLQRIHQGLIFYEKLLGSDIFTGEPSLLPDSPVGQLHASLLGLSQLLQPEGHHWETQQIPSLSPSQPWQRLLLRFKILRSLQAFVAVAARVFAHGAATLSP
T2 sequence 2: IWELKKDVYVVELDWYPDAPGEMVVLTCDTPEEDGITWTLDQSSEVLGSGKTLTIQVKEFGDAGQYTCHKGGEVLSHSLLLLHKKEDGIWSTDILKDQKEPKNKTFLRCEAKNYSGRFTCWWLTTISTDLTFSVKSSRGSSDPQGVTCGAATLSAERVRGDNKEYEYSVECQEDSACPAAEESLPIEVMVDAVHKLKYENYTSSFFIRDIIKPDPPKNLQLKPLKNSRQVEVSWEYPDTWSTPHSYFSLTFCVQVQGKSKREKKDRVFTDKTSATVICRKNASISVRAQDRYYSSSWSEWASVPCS


Key:
cynomolgus IL-23 [1] = target: T3, cynomolgus IL-23 (cynomolgus, UniProt H6WS56 20-189); assay: SPR (ProteOn XPR36), compound captured on goat anti-human IgG Fc, antigen injected
Protocol: (§1) SPR experiments were performed on a ProteOn XPR36 instrument (Bio Rad). A GLM chip was preconditioned with sequential injections of 60 sec of 0.5% SDS, 50 mM NaOH, and 100 mM HCl at a flow rate of 30 μl/min both vertical and horizontal directions.
(§2) The preconditioned GLM chip was then activated by an injection of EDC (76.7 mg/ml) and sulfo-NHS (21.7 mg/ml) mixture with ratio of 1:1 in 6 horizontal channels. Goat-anti-human IgG (GAHA) Fc gamma (Invitrogen) at a concentration of 30 μg/ml in 10 mM, pH 5.0 sodium acetate buffer was immobilized to 8,000 resonance units on the activated GLM chip in 6 horizontal channels. The chip was finally deactivated with 1 M ethanolamine HCl in 6 horizontal channels. The prepared GAHA chip was rotated to vertical direction to capture test compounds, over 5 vertical channels and the last channel was used as a column reference. The captured chip was then rotated again to the horizontal direction for binding. […] The dissociation was allowed for 2 hour. The GAHA surface was regenerated using short pulse injection (18 seconds) of 0.85% phosphoric acid (Bio Rad) at a flow rate of 100 μl/min both horizontal and vertical directions after 10 min association and 2 hr dissociation. The regenerated GAHA was ready for another binding cycle.

human BAFF [2] = target: T4, human BAFF (human, UniProt Q9Y275 134-285, limits assumed); assay: as above
T4 construct: also called hu BAFF; hBAFF
Protocol: as §1, §2

cynomolgus BAFF = target: T5, cynomolgus BAFF (cynomolgus, UniProt A0A2K5V2X4 134-285); assay: as above
T5 construct: construct not described
Protocol: as §1, §2

[3] = target: T1, Linked human IL-23 (Boehringer …); assay: as above
Protocol: as §1, §2

human BAFF [4] = target: T4, human BAFF; assay: BLI (Octet RED96, streptavidin tips), compound incubated 48 h at 37 C in whole blood vs kinetic buffer
Protocol: (§3) A whole blood interference assay was developed on an Octet RED96 to detect the effects of non-specific binding or off-target binding for compounds in the presence of whole blood (WB). The compound solutions in whole blood and 1× kinetic running buffer (1×kb) were incubated at a temperature of 37° C. for 48 hours. Kinetic measurements for the incubated compound samples were performed with an Octet RED96 equipped with streptavidin (SA) biosensor tips (ForteBio, Menlo Park, Calif.) at 27° C. The ratio of the on-rates/binding signals in buffer and whole blood were reported. A ratio <2 was considered to show no interference.

Recombinant human IL-23 [5] = target: T2, Recombinant human IL-23; assay: as above
Protocol: as §3

[6] = target: Recombinant human BAFF trimer (Boehringer Ingelheim Pharmaceuticals, Inc.) (human, UniProt Q9Y275 134-285, limits assumed); assay: cell-based or functional assay
[7] = target: Recombinant human BAFF 60mer (Boehringer Ingelheim Pharmaceuticals, Inc.) (human, UniProt Q9Y275 134-285, limits assumed); assay: cell-based or functional assay
Recombinant human IL-23 [8] = target: T2, Recombinant human IL-23; assay: cell-based or functional assay
cynomolgus IL-23 [9] = target: T3, cynomolgus IL-23; assay: cell-based or functional assay
Recombinant human IL-23 [10] = target: T2, Recombinant human IL-23; assay: cell-based or functional assay; remark: listed apart in the source

Kd (cynomolgus IL-23 [1])	Kd (human BAFF [2])	Kd (cynomolgus BAFF)	Kd [3]	Ratio of binding signal in WB/kinetic buffer (human BAFF [4])	Ratio of binding signal in WB/kinetic buffer (Recombinant human IL-23 [5])	IC50, NFkB luciferase reporter, human BAFFR-CHO cells [6]	IC90, NFkB luciferase reporter, human BAFFR-CHO cells [6]	IC50, NFkB luciferase reporter, human BAFFR-CHO cells [7]	IC90, NFkB luciferase reporter, human BAFFR-CHO cells [7]	IC50, STAT3-luciferase reporter in DB lymphoblast B cells (Recombinant human IL-23 [8])	IC90, STAT3-luciferase reporter in DB lymphoblast B cells (Recombinant human IL-23 [8])	IC50, IL-23-induced mouse IL-17 release from mouse splenocytes (cynomolgus IL-23 [9])	IC90, IL-23-induced mouse IL-17 release from mouse splenocytes (cynomolgus IL-23 [9])	IC50, IL-23-induced mouse IL-17 release from mouse splenocytes (Recombinant human IL-23 [10])	IC90, IL-23-induced mouse IL-17 release from mouse splenocytes (Recombinant human IL-23 [10])	Binder
< 0.015 nM	< 0.015 nM	< 0.015 nM	< 0.015 nM	1	1.1											Compound E (bispecific antibody, human IgG1, kappa, L234A L235A) chain 1: SSELTQDPAVSVALGQTVRVTCQGDSLRSYYASWYQQKPGQAPVLVIYGKNNRPSGIPDRFSGSSSGNTASLTITGAQAEDEADYYCSSRDSSGNHWVFGGGTELTVLGGGSGGGGQVQLVQSGAEVKKPGSSVKVSCKASGYTFTDQTIHWMRQAPGQGLEWIGYIYPRDDSPKYNENFKGKVTITADKSTSTAYMELSSLRSEDTAVYYCAIPDRSGYAWFIYWGQGTLVTVSSLGGGSGASTKGPSVFPLAPSSKSTSGGTAALGCLVKDYFPEPVTVSWNSGALTSGVHTFPAVLQSSGLYSLSSVVTVPSSSLGTQTYICNVNHKPSNTKVDKRVEPKSCDKTHTCPPCPAPEAAGGPSVFLFPPKPKDTLYITREPEVTCVVVDVSHEDPEVKFNWYVDGVEVHNAKTKPREEQYNSTYRVVSVLTVLHQDWLNGKEYKCKVSNKALPAPIEKTISKAKGQPREPQVYTLPPSREEMTKNQVSLTCLVKGFYPSDIAVEWESNGQPENNYKTTPPVLDSDGSFFLYSKLTVDKSRWQQGNVFSCSVMHEALHNHYTQKSLSLSPG chain 2: DIQMTQSPSSLSASVGDRVTITCKASRDVAIAVAWYQQKPGKVPKLLIYWASTRHTGVPSRFSGSGSRTDFTLTISSLQPEDVADYFCHQYSSYPFTFGSGTKLEIKGGGSGGGGQVQLQQSGAEVKKPGSSVRVSCKASGGTFNNNAINWVRQAPGQGLEWMGGIIPMFGTAKYSQNFQGRVAITADESTGTASMELSSLRSEDTAVYYCARSRDLLLFPHHALSPWGRGTMVTVSSLGGGSGRTVAAPSVFIFPPSDEQLKSGTASVVCLLNNFYPREAKVQWKVDNALQSGNSQESVTEQDSKDSTYSLSSTLTLSKADYEKHKVYACEVTHQGLSSPVTKSFNRGEC
< 0.015 nM	< 0.015 nM	< 0.015 nM	< 0.015 nM	1	1.2	0.072 nM	0.293 nM	1.3 nM	7.39 nM							Compound F (bispecific antibody, human IgG4 S228P, kappa, Large chain: IL23A(1) VL - BAFF(1) VH - LGGGSG - IgG4-Pro-YTE; small chain: BAFF(1) VL - IL23A(1) VH - LGGGSG - CL) chain 1: DIQMTQSPSSLSASVGDRVTITCKASRDVAIAVAWYQQKPGKVPKLLIYWASTRHTGVPSRFSGSGSRTDFTLTISSLQPEDVADYFCHQYSSYPFTFGSGTKLEIKGGGSGGGGQVQLQQSGAEVKKPGSSVRVSCKASGGTFNNNAINWVRQAPGQGLEWMGGIIPMFGTAKYSQNFQGRVAITADESTGTASMELSSLRSEDTAVYYCARSRDLLLFPHHALSPWGRGTMVTVSSLGGGSGASTKGPSVFPLAPCSRSTSESTAALGCLVKDYFPEPVTVSWNSGALTSGVHTFPAVLQSSGLYSLSSVVTVPSSSLGTKTYTCNVDHKPSNTKVDKRVESKYGPPCPPCPAPEFLGGPSVFLFPPKPKDTLYITREPEVTCVVVDVSQEDPEVQFNWYVDGVEVHNAKTKPREEQFNSTYRVVSVLTVLHQDWLNGKEYKCKVSNKGLPSSIEKTISKAKGQPREPQVYTLPPSQEEMTKNQVSLTCLVKGFYPSDIAVEWESNGQPENNYKTTPPVLDSDGSFFLYSRLTVDKSRWQEGNVFSCSVMHEALHNHYTQKSLSLSLG chain 2: SSELTQDPAVSVALGQTVRVTCQGDSLRSYYASWYQQKPGQAPVLVIYGKNNRPSGIPDRFSGSSSGNTASLTITGAQAEDEADYYCSSRDSSGNHWVFGGGTELTVLGGGSGGGGQVQLVQSGAEVKKPGSSVKVSCKASGYTFTDQTIHWMRQAPGQGLEWIGYIYPRDDSPKYNENFKGKVTITADKSTSTAYMELSSLRSEDTAVYYCAIPDRSGYAWFIYWGQGTLVTVSSLGGGSGRTVAAPSVFIFPPSDEQLKSGTASVVCLLNNFYPREAKVQWKVDNALQSGNSQESVTEQDSKDSTYSLSSTLTLSKADYEKHKVYACEVTHQGLSSPVTKSFNRGEC
< 0.015 nM	< 0.015 nM	< 0.015 nM	< 0.015 nM	1.1	1.3	0.035 nM	0.11 nM	0.006 nM	0.014 nM	0.189 nM	2.33 nM	0.11 nM	0.88 nM	0.133 nM	0.761 nM	Compound C (bispecific antibody, human IgG1, kappa, L234A L235A, Tetravalent format) chain 1: DIQMTQSPSSLSASVGDRVTITCKASRDVAIAVAWYQQKPGKVPKLLIYWASTRHTGVPSRFSGSGSRTDFTLTISSLQPEDVADYFCHQYSSYPFTFGSGTKLEIKGGGSGGGGQVQLVQSGAEVKKPGASVKVSCKASGYSFSTFFIHWVRQRPGQGLEWIGRIDPNSGATKYNEKFESKVTLTRDTSISTAYMELSRLRSDDTAVYYCARGEDLLIRTDALDYWGQGTSVTVSSLGGGSGASTKGPSVFPLAPSSKSTSGGTAALGCLVKDYFPEPVTVSWNSGALTSGVHTFPAVLQSSGLYSLSSVVTVPSSSLGTQTYICNVNHKPSNTKVDKRVEPKSCDKTHTCPPCPAPEAAGGPSVFLFPPKPKDTLYITREPEVTCVVVDVSHEDPEVKFNWYVDGVEVHNAKTKPREEQYNSTYRVVSVLTVLHQDWLNGKEYKCKVSNKALPAPIEKTISKAKGQPREPQVYTLPPSREEMTKNQVSLTCLVKGFYPSDIAVEWESNGQPENNYKTTPPVLDSDGSFFLYSKLTVDKSRWQQGNVFSCSVMHEALHNHYTQKSLSLSPG chain 2: DIQMTQSPSSLSASVGDRVSITCKASQNAGIDVAWFQQKPGKAPKLLIYSKSNRYTGVPSRFSGSGSGTDFTLTISSLQPEDFADYYCLQYRSYPRTFGGGTKLEIKGGGSGGGGQVQLVQSGAEVKKPGSSVKVSCKASGYTFTDQTIHWMRQAPGQGLEWIGYIYPRDDSPKYNENFKGKVTITADKSTSTAYMELSSLRSEDTAVYYCAIPDRSGYAWFIYWGQGTLVTVSSLGGGSGRTVAAPSVFIFPPSDEQLKSGTASVVCLLNNFYPREAKVQWKVDNALQSGNSQESVTEQDSKDSTYSLSSTLTLSKADYEKHKVYACEVTHQGLSSPVTKSFNRGEC
